Results reported in US20140378372A1 (SERPIN PHARMA, published 2014).

Molecular target: hERG (channel tested in the hERG FastPatch assay) (UniProt Q12809 1-1159)
Assay: cell-based or functional assay

Sequence of hERG (channel tested in the hERG FastPatch assay) (Q12809 whole entry): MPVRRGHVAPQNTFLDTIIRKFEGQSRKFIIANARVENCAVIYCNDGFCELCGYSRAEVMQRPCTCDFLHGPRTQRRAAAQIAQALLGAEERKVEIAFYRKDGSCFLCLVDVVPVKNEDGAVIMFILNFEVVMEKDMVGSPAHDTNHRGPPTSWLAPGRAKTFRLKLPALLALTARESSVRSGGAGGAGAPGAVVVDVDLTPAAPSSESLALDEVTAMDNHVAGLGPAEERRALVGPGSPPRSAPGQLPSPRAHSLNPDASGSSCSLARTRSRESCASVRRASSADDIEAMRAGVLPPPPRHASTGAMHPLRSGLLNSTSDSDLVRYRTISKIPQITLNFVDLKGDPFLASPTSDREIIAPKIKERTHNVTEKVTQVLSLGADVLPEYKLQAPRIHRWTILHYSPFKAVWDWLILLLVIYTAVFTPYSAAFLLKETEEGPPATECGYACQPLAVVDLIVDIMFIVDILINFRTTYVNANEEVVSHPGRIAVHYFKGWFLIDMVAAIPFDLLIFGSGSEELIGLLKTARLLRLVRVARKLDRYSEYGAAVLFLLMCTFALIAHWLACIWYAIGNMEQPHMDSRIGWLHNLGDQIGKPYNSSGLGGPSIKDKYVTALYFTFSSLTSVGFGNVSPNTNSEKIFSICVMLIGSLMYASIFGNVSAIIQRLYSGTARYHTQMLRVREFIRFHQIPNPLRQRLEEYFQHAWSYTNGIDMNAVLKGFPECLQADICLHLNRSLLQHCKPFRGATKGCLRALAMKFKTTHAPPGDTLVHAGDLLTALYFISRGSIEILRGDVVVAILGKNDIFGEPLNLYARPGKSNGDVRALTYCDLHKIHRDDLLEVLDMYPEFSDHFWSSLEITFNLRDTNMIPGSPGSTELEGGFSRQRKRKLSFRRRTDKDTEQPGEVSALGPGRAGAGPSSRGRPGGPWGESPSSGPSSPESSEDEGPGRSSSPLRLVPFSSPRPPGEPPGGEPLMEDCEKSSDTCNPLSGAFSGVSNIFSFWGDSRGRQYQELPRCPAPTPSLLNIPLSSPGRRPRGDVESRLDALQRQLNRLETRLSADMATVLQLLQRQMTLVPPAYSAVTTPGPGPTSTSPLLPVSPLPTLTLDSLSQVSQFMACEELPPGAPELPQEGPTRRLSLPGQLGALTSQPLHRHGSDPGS

B1: SP16 peptide (C36 Core sequence, long; derived from human alpha-1-antitrypsin) (peptide)
peptide: VKFNKPFVFLMIEQNTK
IC50 value (hERG FastPatch assay, test conc 0.008-25 uM): > 25 µM
